Results on two molecules are retold here after patent US20200354427A1 (Eli Lilly, published 2020).

In experiment [1] the target is PTH receptor (PTHR1 receptor) endogenously expressed by rat osteosarcoma UMR-106 cells (rat) (UniProt P25961). The experiment in a line: cell-based or functional assay.
The target of experiment [2] is T1, human RANKL (receptor activator of nuclear factor kappa-B ligand) (human, UniProt O14788 140-317, limits assumed).
T1 sequence (looked up): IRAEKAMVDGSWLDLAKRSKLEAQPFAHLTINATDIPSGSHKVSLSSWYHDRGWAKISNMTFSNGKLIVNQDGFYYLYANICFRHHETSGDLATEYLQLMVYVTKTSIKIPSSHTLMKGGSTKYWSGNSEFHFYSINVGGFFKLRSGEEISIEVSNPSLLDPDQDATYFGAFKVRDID
The experiment in a line: cell-based or functional assay.

Chain of PTH receptor (PTHR1 receptor) endogenously expressed by rat osteosarcoma UMR-106 cells (rat) (P25961 27-591): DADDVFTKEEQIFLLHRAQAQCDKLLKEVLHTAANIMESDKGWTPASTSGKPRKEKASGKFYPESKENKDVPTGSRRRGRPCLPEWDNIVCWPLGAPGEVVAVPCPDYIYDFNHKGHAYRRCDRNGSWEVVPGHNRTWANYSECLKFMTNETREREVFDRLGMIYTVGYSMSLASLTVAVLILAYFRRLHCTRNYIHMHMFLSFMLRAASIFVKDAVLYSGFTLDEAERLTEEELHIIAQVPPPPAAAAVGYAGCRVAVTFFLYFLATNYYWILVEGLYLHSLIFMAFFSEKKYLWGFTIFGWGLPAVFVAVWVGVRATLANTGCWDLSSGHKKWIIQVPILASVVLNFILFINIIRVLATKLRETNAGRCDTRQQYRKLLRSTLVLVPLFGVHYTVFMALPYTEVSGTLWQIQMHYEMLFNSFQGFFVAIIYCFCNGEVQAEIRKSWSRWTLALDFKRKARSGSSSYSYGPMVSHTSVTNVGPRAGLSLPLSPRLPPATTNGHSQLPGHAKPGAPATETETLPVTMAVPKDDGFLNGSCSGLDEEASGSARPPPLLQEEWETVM

On to “PTH peptide (a 38 amino acid parathyroid hormone peptide)”, for which the EC50 (nM); PTHR1 activation, CRE-regulated luciferase luminescence in UMR-106 cells in experiment [1] came to 5.6 nM.

B1: RANKL neutralizing antibody (an IgG4 RANKL mAb having the same HC and LC amino acid sequences as the mAb portion of the exemplified fusion compound) (antibody, V domains shown)
VH: QVQLVQSGAEVKKPGSSVKVSCKASGYAFTNYYIEWVRQAPGQGLEWMGVINPGWGDTNYNEKFKGRVTITADKSTSTAYMELSSLRSEDTAVYYCARRDTAHGYYALDPWGQGTTVTVSS
VL: DIQMTQSPSSLSASVGDRVTITCKASQNVGTNVAWYQQKPGKAPKLLIYSASYRYSGVPSRFSGSGSGTDFTLTISSLQPEDFATYYCQQYWDYPLTFGGGTKVEIKR
On to B1, for which the “IC50 (nM) hRANKL; neutralization of RANKL-induced NF-kB driven luciferase luminescence” value in experiment [2] worked out at 0.069 nM.
